How the values were obtained:
[1] = target: human CD11b I-domain (human); test: SPR
[2] = target: murine CD11b I-domain (mouse); test: SPR
Chain of murine CD11b I-domain (mouse) (P05555 17-1153): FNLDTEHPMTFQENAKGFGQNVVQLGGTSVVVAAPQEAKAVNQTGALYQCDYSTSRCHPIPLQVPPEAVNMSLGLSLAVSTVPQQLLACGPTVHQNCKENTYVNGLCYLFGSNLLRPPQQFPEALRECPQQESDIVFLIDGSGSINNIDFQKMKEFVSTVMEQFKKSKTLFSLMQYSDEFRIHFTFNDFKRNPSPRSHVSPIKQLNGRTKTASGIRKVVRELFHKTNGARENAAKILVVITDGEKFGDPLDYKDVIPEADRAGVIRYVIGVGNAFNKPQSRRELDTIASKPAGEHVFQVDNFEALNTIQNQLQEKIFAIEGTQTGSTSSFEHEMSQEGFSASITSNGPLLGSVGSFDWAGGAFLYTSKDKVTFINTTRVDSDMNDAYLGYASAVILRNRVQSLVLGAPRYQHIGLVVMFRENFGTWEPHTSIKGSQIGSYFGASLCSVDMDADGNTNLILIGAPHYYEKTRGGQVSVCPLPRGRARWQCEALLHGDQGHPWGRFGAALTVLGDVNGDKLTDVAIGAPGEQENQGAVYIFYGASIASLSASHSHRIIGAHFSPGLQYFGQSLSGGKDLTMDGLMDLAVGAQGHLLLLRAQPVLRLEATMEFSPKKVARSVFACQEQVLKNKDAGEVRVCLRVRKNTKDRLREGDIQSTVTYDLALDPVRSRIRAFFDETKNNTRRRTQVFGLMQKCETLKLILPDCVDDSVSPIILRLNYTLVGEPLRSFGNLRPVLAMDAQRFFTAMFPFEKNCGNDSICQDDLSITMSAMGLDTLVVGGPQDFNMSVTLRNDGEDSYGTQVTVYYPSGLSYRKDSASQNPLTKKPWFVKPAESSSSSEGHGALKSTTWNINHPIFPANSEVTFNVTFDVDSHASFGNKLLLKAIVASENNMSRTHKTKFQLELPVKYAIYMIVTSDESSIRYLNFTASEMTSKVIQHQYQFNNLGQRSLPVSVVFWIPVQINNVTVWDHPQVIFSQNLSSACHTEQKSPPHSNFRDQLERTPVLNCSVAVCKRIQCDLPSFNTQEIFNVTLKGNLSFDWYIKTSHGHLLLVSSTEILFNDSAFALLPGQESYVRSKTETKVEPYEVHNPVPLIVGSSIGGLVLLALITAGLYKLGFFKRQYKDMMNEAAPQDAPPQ

How did the Kd [1] turn out when LukAB (complex) was run?
The Kd was 0.0393 µM.

And the Kd [2]?
Its Kd is 247 µM.

— publication PMC7065885
